Experimental data reported in patent US11703510B2, “Methods and products for in vivo enzyme profiling” (Massachusetts Institute of Technology, priority 2009, dated 2023).
Square brackets hold non-standard residues; d marks the D form. Ends that are not written are not given here. fluorescein = fluorescein label at the N-terminus

Assay: Optimization of peptide reporters for LC/MS detection
Conditions: compared with other peptides of the same proteolytic-product group with longer or less hydrophilic caps; FIG. 8B
Source text: A series of peptides (A1-A14) of different sequence were investigated to determine optimal sequence length and charge density that would enable facile detection via LC/MS. Three representative proteolytic products, sequences GGVVVLS (SEQ ID NO: 19), GGPVG (SEQ ID NO: 13), and GGdFPipR (SEQ ID NO: 17) were selected and appended with peptide caps of differing length and charge density (FIG. 8A). The sequences were then detected via LC/MS. […] A hydrophilic molecule is a molecule that can transiently hydrogen-bond with water and is, thus, soluble in water and, in some embodiments, in other polar solvents. Hydrophilicity of peptides can be modulated according to methods well known in the art. In some embodiments, removal of the fluorescein tag will increase the hydrophilicity of the peptides reported in this disclosure. In some embodiments, modification of the sequences to contain positively charged residues (Histidine, Lysine, and Arginine) and/or negatively charged residues (glutamic acid and aspartic acid) will increase the hydrophilicity. […] Of the tested cap sequences Fl-dR-dS-dR (SEQ ID NO: 20) and Fl-dR-G-dS-dR (SEQ ID NO: 21) were determined to be advantageous. Accordingly, for non-fluorescent detection, the cap sequences dR-dS-dR (SEQ ID NO: 35) and dR-G-dS-dR (SEQ ID NO: 36) were determined to be advantageous. […]

Row | Substance | detection via LC/MS (normalized relative intensities of the peptide reporters)
1 | Fl-dR-G-dS-dR (fluorescein-[dR]G[dS][dR]) | advantageous
2 | Fl-dR-dS-dR (fluorescein-[dR]-[dS]-[dR]) | advantageous
